# From WO2001004269A1
# Assays:
# von Willebrand factor [1] = molecular target: von Willebrand factor (UniProt P04275); assay: as above, after thrombin digestion (activated factor VIII) in the absence of antibody; parameters: unit not given here
# von Willebrand factor [2] = molecular target: von Willebrand factor (UniProt P04275); assay: biotinylated recombinant factor VIII complexed to von Willebrand factor, captured on the anti-von Willebrand factor antibody MoAb4H1D7, no thrombin digestion, avidin-peroxidase detection; parameters: unit not given here
substance,measurement,setting,value
human recombinant factor VIII (from UniProt P00451 20-2351),OD450 (OD450 (so in the source)),von Willebrand factor [1],160
same,OD450 (OD450 (so in the source)),von Willebrand factor [2],460
